Assay [1] relates to Tie2 (Ang1 or Ang2 binding). Particulars: synthetic free form, ref Tournaire et al, 2004, cited from earlier work; for inhibition of Ang1 or Ang2 binding to Tie2: competition assays, tested up to 1 mM. The source says: For therapeutic use, recombinant variants or mimetics of multimeric Ang1 have been engineered, including Ang1* and Ang-F1-Fc-F1/Bow-Ang1 (Davis et al, [2003]; Daly et al, [2013]), MAT-Ang1 and COMP-Ang1 (Cho et al, [2004]; Koh, [2013]). […] The main focus of the original paper that discovered T7 (Tournaire et al, [2004]) was actually on a different peptide called ‘T4’ (NLLMAAS) and its potential use as a Tie2 inhibitor/antagonist.

In a further assay the target is T1, mouse Tie2-Fc (mTie2-Fc) (Mus musculus, UniProt Q02858).
T1 construct: Purified human or mouse Tie2-Fc (i.e., Fc-conjugated extracellular domains of Tie2); purchased R&D Systems 762-T2-100
Put plainly: SPR binding to mouse Tie2-Fc. Particulars: mouse Tie2-Fc (low- and high-density), 37°C, pH 7.4, Supplementary Fig S3. The source says: To better understand the difficulties we had in observing Tie2 activation by VT, we sought to characterize the binding affinity and kinetics of VT to Tie2. Purified human or mouse Tie2-Fc (i.e., Fc-conjugated extracellular domains of Tie2) were first coupled to protein A sepharose beads for pull-down experiments (Fig9A and B) or immobilized on a Biacore CM5 sensor chip for surface plasmon resonance (SPR) experiments (Fig9C and Supplementary Fig S3). […]
(§1) 9. Tie2 Receptor-Binding Assays
(§2) Vasculotide (VT) was manufactured by Bachem UK Ltd. T7c (CHHHRHSF) was synthesized by Genscript (Piscataway, NJ, USA). PEG-Cys consists of a single cysteine reacted to each of the 4 arms of PEG-maleimide (Sunbright PTE-100MA, NOF Corporation, Tokyo, Japan). BowAng1 (Ang1-Fd-Fc-Fd) was made and provided by Regeneron Pharmaceuticals, Inc. (Tarrytown, NY, USA). COMP-Ang1 was purified in the Kerbel lab from serum-free culture media conditioned by an engineered CHO cell line provided by Dr. Gou Young Koh (KAIST), according to published protocols (Hwang et al, 2008).
(§3) Recombinant human Angiopoietin-1 (rhAng1) and Vascular Endothelial Growth Factor ( rhVEGF) were […]
(§4) purchased from R&D Systems. […]
(structural/molecular weight control for VT), and 40 μL of supernatant (7% of residual/unbound ligand) – were similarly boiled in SDS sample buffer. […]
Binding analysis were performed by exposure of immobilized mTie2-Fc to the analytes diluted in HBS-EP (0.01M HEPES pH 7.4, 0.15M NaCl, 3mM EDTA, 0.005% v/v Tween-20), which was supplemented with 1mg/mL carboxymethyl dextran (NSB reducer, GE Healthcare) to reduce non-specific binding to the sensor chip. […] To quantitatively determine the kinetic properties of the interaction (KD, kd, ka) and avoid mass transport limitations, mTie2-Fc and hTie2-Fc were immobilized at low density (1,000-1,200RU) onto separate flow cells of the CM5 chip using amine coupling chemistry. […] All data were analysed using BIA Evaluation Software 2.0 (GE Healthcare) to calculate kd, ka and KD using the 1:1 ligand binding model. […]
Background: Surface plasmon resonance follows binding to a sensor surface in real time, without labels.

The target in another assay is T2, human Tie2-Fc (hTie2-Fc) (Homo sapiens, UniProt Q02763).
T2 construct: Purified human or mouse Tie2-Fc (i.e., Fc-conjugated extracellular domains of Tie2); purchased R&D Systems 313-TI-100
Put plainly: SPR binding to human Tie2-Fc. The conditions noted are these: human Tie2-Fc, 0.625–10 nM, 37°C, pH 7.4, Fig9C.
Excerpt: To better understand the difficulties we had in observing Tie2 activation by VT, we sought to characterize the binding affinity and kinetics of VT to Tie2. Purified human or mouse Tie2-Fc (i.e., Fc-conjugated extracellular domains of Tie2) were first coupled to protein A sepharose beads for pull-down experiments (Fig9A and B) or immobilized on a Biacore CM5 sensor chip for surface plasmon resonance (SPR) experiments (Fig9C and Supplementary Fig S3).
Figure 9 Binding of Vasculotide vs. Ang1 variants to the extracellular domain of Tie2 • A–B Pull-down assay. Input ligands—rhAng1 (A) and VT (B)—were incubated with either protein A sepharose beads only, bead-conjugated mouse Tie2-Fc (mTie2), or bead-conjugated human Tie2-Fc (hTie2). […] The ‘unbound’ fraction is 7% of residual/free ligands remaining in the supernatant. • C Quantitative kinetics analysis by SPR. All analytes were run at increasing concentrations of 0.625, 1.25, 2.5, 5, and 10 nM, at 37°C and pH 7.4. […] Source data are available online for this figure. […]
as §1, §2, §3, §4
(structural/molecular weight control for VT), and 40 μL of supernatant (7% of residual/unbound ligand) – were similarly boiled in SDS sample buffer. Ang1 samples and controls were resolved by 7.5% polyacrylamide gel electrophoresis (PAGE), electroblotted onto PVDF membranes, and probed with an anti-Ang1 antibody (R&D Sytems, AF923; diluted 1:2,000 in TBS supplemented with 7% BSA and 0.1% Tween-20) at 75kDa (reduced monomers). VT samples and controls were resolved by 17% PAGE, blotted onto PVDF membranes, and probed with an anti-PEG antibody (Silver Lake Research, CH2074; diluted 1:4,000 in TBS supplemented with 7% BSA and 0.05% CHAPS*) at higher “apparent” molecular weights than the expected 14 and 10kDa due to their polymeric nature and large hydrodynamic radii (Zheng et al, 2007). *Note: non-ionic, PEO-based, polymer detergents were avoided at these steps as they cross-react with the anti-PEG antibody used for detecting VT.
Surface Plasmon Resonance (SPR) Experiments: The binding of analytes – VT, T7c peptide, PEG-Cys, rhAng1, COMP-Ang1, BowAng1, and rhVEGF – to the extracellular domain of Tie2 were […]
investigated by SPR using a Biacore T200 Instrument (GE Healthcare). For qualitative binding analysis, mTie2-Fc was dissolved in 10mM acetate buffer (pH 4.5) and immobilized at high density onto a CM5 sensor chip using amine coupling chemistry as described by the manufacturer to a response of 11,500RU.
Binding analysis were performed by exposure of immobilized mTie2-Fc to the analytes diluted in HBS-EP (0.01M HEPES pH 7.4, 0.15M NaCl, 3mM EDTA, 0.005% v/v Tween-20), which was supplemented with 1mg/mL carboxymethyl dextran (NSB reducer, GE Healthcare) to reduce non-specific binding to the sensor chip. Analytes were injected at 30μL/min (association time 120s, dissociation time 120s) at 37 °C, and the chip surface was regenerated each cycle by a 60s pulse of 4M MgCl2. To quantitatively determine the kinetic properties of the interaction (KD, kd, ka) and avoid mass transport limitations, mTie2-Fc and hTie2-Fc were immobilized at low density (1,000-1,200RU) onto separate flow cells of the CM5 chip using amine coupling chemistry. Kinetic analyses were performed using a single-cycle kinetic […]

Assay [2] addresses T3, mouse Tie2-Fc (Fc-conjugated extracellular domain of Tie2) (mouse, UniProt Q02858 23-746).
T3 chain: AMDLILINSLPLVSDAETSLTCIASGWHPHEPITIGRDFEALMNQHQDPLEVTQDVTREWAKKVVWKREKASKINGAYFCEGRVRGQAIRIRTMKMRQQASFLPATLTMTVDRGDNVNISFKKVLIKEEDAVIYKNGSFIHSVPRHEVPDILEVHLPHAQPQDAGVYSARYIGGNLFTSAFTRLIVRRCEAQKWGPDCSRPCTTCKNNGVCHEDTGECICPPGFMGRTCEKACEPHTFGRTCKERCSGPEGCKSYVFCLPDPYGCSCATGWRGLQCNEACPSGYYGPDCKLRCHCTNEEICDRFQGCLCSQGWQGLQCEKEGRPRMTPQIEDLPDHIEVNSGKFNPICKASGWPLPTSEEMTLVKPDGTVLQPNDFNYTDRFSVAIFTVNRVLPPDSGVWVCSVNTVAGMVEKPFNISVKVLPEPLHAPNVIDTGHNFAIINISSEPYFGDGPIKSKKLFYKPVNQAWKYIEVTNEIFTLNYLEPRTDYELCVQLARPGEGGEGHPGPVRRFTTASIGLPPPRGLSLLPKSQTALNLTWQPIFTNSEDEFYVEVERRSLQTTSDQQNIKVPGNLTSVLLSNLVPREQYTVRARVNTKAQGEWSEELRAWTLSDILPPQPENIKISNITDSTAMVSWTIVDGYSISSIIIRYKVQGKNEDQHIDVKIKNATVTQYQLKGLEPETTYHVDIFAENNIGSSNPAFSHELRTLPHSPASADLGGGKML
The assay can be described thus: SPR.

Assay [3] concerns the target T3, mouse Tie2-Fc (Fc-conjugated …). Put plainly: SPR.
The target of assay [4] is T4, human Tie2-Fc (Fc-conjugated extracellular domain of Tie2) (human, UniProt Q02763 23-748).
T4 chain: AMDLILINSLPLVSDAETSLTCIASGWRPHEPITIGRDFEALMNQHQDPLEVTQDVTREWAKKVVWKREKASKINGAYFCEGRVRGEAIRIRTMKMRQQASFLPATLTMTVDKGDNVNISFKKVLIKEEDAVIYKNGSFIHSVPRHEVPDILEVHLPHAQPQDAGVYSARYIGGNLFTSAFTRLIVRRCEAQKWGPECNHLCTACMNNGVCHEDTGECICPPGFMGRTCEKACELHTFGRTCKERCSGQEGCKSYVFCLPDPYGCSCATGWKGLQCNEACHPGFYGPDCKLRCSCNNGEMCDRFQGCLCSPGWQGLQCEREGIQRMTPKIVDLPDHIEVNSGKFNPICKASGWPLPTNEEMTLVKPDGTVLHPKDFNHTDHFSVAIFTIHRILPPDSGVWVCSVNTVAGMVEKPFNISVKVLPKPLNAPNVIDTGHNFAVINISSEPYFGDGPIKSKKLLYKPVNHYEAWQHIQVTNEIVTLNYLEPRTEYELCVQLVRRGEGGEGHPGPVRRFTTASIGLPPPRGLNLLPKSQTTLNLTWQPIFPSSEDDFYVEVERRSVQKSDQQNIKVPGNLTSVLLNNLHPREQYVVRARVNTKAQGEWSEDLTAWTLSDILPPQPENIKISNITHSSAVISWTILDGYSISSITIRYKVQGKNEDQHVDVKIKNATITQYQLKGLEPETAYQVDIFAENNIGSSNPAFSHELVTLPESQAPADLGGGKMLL
The assay can be described thus: SPR.

In assay [5] the target is T4, human Tie2-Fc (Fc-conjugated …). Put plainly: SPR.

Regarding “HHHRHSF [T7, HHHRHSF, heptapeptide identified by phage display, synthetic free form]”, in assay [1], the “inhibition of Ang1 or Ang2 binding to Tie2” value is listed as “did not inhibit Ang1 or Ang2 binding to Tie2”.

Turning to NLLMAAS [T4], the Ki in assay [1] (ELISA and SPR, read-out: Ki, competitive inhibition of Ang1 or Ang2 binding to Tie2) was ~300000 nM. The “inhibition of Ang1 or Ang2 binding to Tie2” value in assay [1] is recorded as “able to competitively inhibit Ang1 or Ang2 binding to Tie2”.

Turning to VEGF, the “binding to Tie2-Fc” value is “no binding to Tie2-Fc was detectable” on mouse Tie2-Fc (mTie2-Fc), “no binding to Tie2-Fc was detectable” on human Tie2-Fc (hTie2-Fc) and “no detectable binding” on human Tie2-Fc (hTie2-Fc) (listed as rhVEGF).

B1: BowAng1 (Ang-F1-Fc-F1) (ligand)
chain: RDCADVYQAGFNKSGIYTIYINNMPEPKKVFCNMDVNGGGWTVIQHREDGSLDFQRGWKEYKMGFGNPSGEYWLGNEFIFAITSQRQYMLRIELMDWEGNRAYSQYDRFHIGNEKQNYRLYLKGHTGTAGKQSSLILHGADFSTKDADNDNCMCKCALMLTGGWWFDACGPSNLNGMFYTAGQNHGKLNGIKWHYFKGPSYSLRSTTMMIRPLDFRDCADVYQAGFNKSGIYTIYINNMPEPKKVFCNMDVNGGGWTVIQHREDGSLDFQRGWKEYKMGFGNPSGEYWLGNEFIFAITSQRQYMLRIELMDWEGNRAYSQYDRFHIGNEKQNYRLYLKGHTGTAGKQSSLILHGADFSTKDADNDNCMCKCALMLTGGWWFDACGPSNLNGMFYTAGQNHGKLNGIKWHYFKGPSYSLRSTTMMIRPLDF
Take B1: the dissociation constant Kd in assay [2] was 0.465 nM; in assay [5], 0.611 nM. Further, the koff was determined as 0.00231 s⁻¹ in assay [3] and 0.00232 s⁻¹ in assay [4].

B2: COMP-Ang1 (ligand)
chain: DLAPQMLRELQETNAALQDVRELLRHRVKEITFLKNTVMECDACGDTVHNLVNLCTKEGVLLKGGKREEEKPFRDCADVYQAGFNKSGIYTIYINNMPEPKKVFCNMDVNGGGWTVIQHREDGSLDFQRGWKEYKMGFGNPSGEYWLGNEFIFAITSQRQYMLRIELMDWEGNRAYSQYDRFHIGNEKQNYRLYLKGHTGTAGKQSSLILHGADFSTKDADNDNCMCKCALMLTGGWWFDACGPSNLNGMFYTAGQNHGKLNGIKWHYFKGPSYSLRSTTMMIRPLDF
For the molecule B2, the Kd in assay [2] was determined as 1.32 nM; in assay [5] it was 1.36 nM. Further, the koff in assay [3] stood at 0.00208 s⁻¹; in assay [4] it was 0.00361 s⁻¹.

In general, Ki refers to a dissociation constant, usually derived from enzyme kinetics or from competition with a known ligand. The Kd is the constant that tells how readily two partners part at equilibrium. A word on the koff: it is the rate constant with which the complex falls apart. Low readings indicate slow dissociation, high ones fast dissociation.

Values taken from paper PMC4459817, “Vasculotide reduces endothelial permeability and tumor cell extravasation in the absence of binding to or agonistic activation of Tie2” (EMBO Molecular Medicine, 2015).
